The results in this text go back to patent US20250388696A1 (NAVIGO PROTEINS, published 2025).

Positions count from the first letter of the chain named. Where no end group is shown, it is not given here. Bounds are passed on as bounds.

The labels stand for the following.
B1: Fusion proteins with albumin binding domain of SEQ ID NO: 5 (designed binder, not shown: small tags and cut ends)
chain: LAEAKVLALKELDKYGISNYYKNLINNAKTIEGVKALKDAIVAA
modifications: also: part of fusion protein, targeting moiety, linker, tag and order not given here
B2: Fusion proteins with albumin binding domain of SEQ ID NO: 21 (designed binder, not shown: small tags and cut ends)
chain: B1 chain with D39A
modifications: also: part of fusion protein, targeting moiety, linker, tag and order not given here
B3: Fusion proteins with albumin binding domain of SEQ ID NO: 22 (designed binder, not shown: small tags and cut ends)
chain: B1 chain with D39A, A40Q, V42L
modifications: also: part of fusion protein, targeting moiety, linker, tag and order not given here
B4: Fusion proteins with albumin binding domain of SEQ ID NO: 23 (designed binder, not shown: small tags and cut ends)
chain: B1 chain with D39E
modifications: also: part of fusion protein, targeting moiety, linker, tag and order not given here
notes: also called c19
B5: Fusion proteins with albumin binding domain of SEQ ID NO: 26 (designed binder, not shown: small tags and cut ends)
chain: B1 chain with K35E, D39E, V42L
modifications: also: part of fusion protein, targeting moiety, linker, tag and order not given here
B6: Fusion proteins with albumin binding domain of SEQ ID NO: 13 (designed binder, not shown: small tags and cut ends)
chain: LAEAKVLAIKELDKAGISDYYFNLINNAKTIEGVKALKAQIVAA
modifications: also: part of fusion protein, targeting moiety, linker, tag and order not given here
B7: Fusion proteins with albumin binding domain of SEQ ID NO: 25 (designed binder, not shown: small tags and cut ends)
chain: B1 chain with K35E, D39E
modifications: also: part of fusion protein, targeting moiety, linker, tag and order not given here
B8: Fusion proteins with albumin binding domain of SEQ ID NO: 24 (designed binder, not shown: small tags and cut ends)
chain: B1 chain with K35E
modifications: also: part of fusion protein, targeting moiety, linker, tag and order not given here
B9: Fusion proteins with albumin binding domain of SEQ ID NO: 7 (designed binder, not shown: small tags and cut ends)
chain: B1 chain with K35E, V42L
modifications: also: part of fusion protein, targeting moiety, linker, tag and order not given here
notes: also called c24
B10: Fusion proteins with albumin binding domain of SEQ ID NO: 6 (designed binder, not shown: small tags and cut ends)
chain: B1 chain with A40E
modifications: also: part of fusion protein, targeting moiety, linker, tag and order not given here
notes: also called c20
B11: fusion protein 217781 (designed binder, not shown: small tags and cut ends)
chain (part 1 of 2): not shown
chain (part 2 of 2): B1 chain with D39E
notes: also called CID 217781
B12: fusion protein 218512 (designed binder, not shown: small tags and cut ends)
chain (part 1 of 2): not shown
chain (part 2 of 2): B1 chain with I31V, D39E
notes: also called CID 218512
B13: fusion protein 218467 (designed binder, not shown: small tags and cut ends)
chain (part 1 of 2): not shown
chain (part 2 of 2): B6 chain with D19N, I31V, A36D
notes: also called CID 218467
B14: fusion protein 217787 (designed binder, not shown: small tags and cut ends)
chain (part 1 of 2): not shown
chain (part 2 of 2): LAEAKVLALKELDKYGISDFYKRLIDKAKTIEGVEALKDAILAA
notes: also called CID 217787
B15: fusion protein 218466 (designed binder, not shown: small tags and cut ends)
chain (part 1 of 2): not shown
chain (part 2 of 2): B1 chain with A40E
notes: also called CID 218466

In one test the target is T1, mouse serum albumin (mouse, UniProt P07724 25-608).
T1 construct: also called MSA
The test is described as follows: SPR, MSA immobilised. The procedure: (§1) Recombinant protein A, HSA, MSA or target (either ED-B or Her2) was immobilized on a High Capacity Amine sensor chip (Bruker) after NHS/EDC activation with a Sierra SPR-32 system (Bruker). The chip was equilibrated with SPR running buffer (PBS 0.05%, Tween pH 7.3). Injection of ethanolamine after target immobilization was used to block free NHS groups. To determine the binding of fusion proteins to FAP, the Fc-tagged target was injected with 60 or 30 nM to Protein A coupled spots followed by the injection of fusion proteins.
(§2) Binding proteins were applied to the chip in serial dilutions with a flow rate of 30 μl/min. Upon binding, analyte accumulated on the surface increasing the refractive index. This change in the refractive index was measured in real time and plotted as response or resonance units versus time. The association was performed for 120 seconds and the dissociation for 180 seconds. After each run, the chip surface was regenerated with 30 μl regeneration buffer (10 mM glycine pH 2.0 or pH 1.5) and equilibrated with running buffer. Binding studies were carried out using the Sierra SPR-32 system (Bruker); data evaluation was operated via the Sierra Analyser software, provided by the manufacturer, by the use of the Langmuir 1:1 model (RI=0).
For B1, the Kd was below 10 nM.
The same measure, in the same setting: next, B2: below 16 nM; B3: below 16 nM.
Still for that read-out and setting: under B4 stands below 10 nM; under B5, below 10 nM.
Same read-out and setting: next, B6: below 16 nM; B7: below 16 nM.
For the molecule B8, the Kd is below 16 nM.
Still for that read-out and setting: under B9 stands below 10 nM.
Same read-out and setting: next, B10: below 10 nM.

The next test addresses T2, Her2-Fc (human, UniProt P04626 23-652).
T2 construct: Coated in ELISA
The test is described as follows: ELISA on coated Her2-Fc; 0 h in mouse serum. The procedure: (§3) High binding plates (Greiner, 781061) were immobilized with 2.5 μg/ml hFAP-Fc or 1.2 μg/ml Her2-Fc over night at 4° C. Dilution series of 3 μM to 0.07 pM of fusion proteins with binding specifically to Her2 were incubated in 100% human serum or 100% mouse serum for 24 h at 37° C. Dilution series of 3 µM to 0.2 pM or 1 μM to 0.01 fM of fusion proteins with binding specifically to hFAP were incubated in 100% human serum or 100% mouse serum for 24 h at 37° C. ELISA-plates were washed three times with PBST (PBS+0.1% Tween) and blocked with 3% BSA/0.5% Tween/PBS up to 2 h at room temperature (rt). After preincubation for 0 h or 24 h in the presence of serum the dilution series were incubated on ELISA-plates for up to 1 h at rt. Wells were washed with PBST and incubated with biotinylated anti-ubiquitin-antibody (1:300) for up to 1 h at rt. The binding was visualized with Streptavidin-HRP (1:5.000).
(§4) The fusion proteins comprise the albumin binding domain (referred to as HED) and the targeting moiety.
Turning to B11, the Kd was determined as 0.36 nM. That is a sub-nanomolar value.
B12: the Kd worked out at 0.2 nM.
On the same count and under the same terms, under B13 stands 0.17 nM; under B14, 0.42 nM.
Same read-out and setting: next, B15: 0.21 nM.

The next test deals with T2, Her2-Fc. The test is described as follows: ELISA on coated Her2-Fc; 0 h in human serum. The procedure:
as §3, §4
Molecule B11 displayed a Kd of 0.61 nM.
The molecule B12 yielded a Kd of 0.23 nM.
The molecule B13 came in with a Kd of 0.34 nM.
The same measure, in the same setting: under B14 stands 0.84 nM; under B15, 0.34 nM.

The target in another test is T3, Her2 expressed on Sk-Br-3 cells (human, UniProt P04626 23-1255).
T3 construct: whole, on cells; also called human epidermal growth factor receptor 2
The experiment in a line: flow cytometry, dilution series on Sk-Br-3 cells. The procedure:
Her2 expressing Sk-Br-3-cells and HEK293-hFAP overexpressing cells were thawed, washed with medium containing FCS, subsequently washed with FACS blocking buffer (PBS/0.1% Sodium Azide/3% FCS) and 100 μl seeded in 96-well round bottom plates with a density of 1×10⁶ cells/ml. Dilution series from 10 µM to 8.6 fM (CID 217781, CID 217787) and a dilution series of 3 µM to 0.2 μM (CID 218466, CID 218467, 218512, CID 218513, CID 218514, CID 218515, CID 218516) were incubated on Her2-expressing Sk-Br-3-cells and dilution series from 1 μM to 0.07 μM of fusion proteins 218690 and 218702 were incubated on hFAP-overexpressing HEK293-cell line for 45 min at 4° C. After centrifugation the supernatants were removed and cells were washed with FACS blocking buffer and 100 μl/well rabbit anti-Strep-Tag antibody (GenScript; A00626), 1:300 diluted in FACS blocking buffer were added. After removal of the primary antibody goat anti-rabbit IgG Alexa Fluor 488 antibody (Invitrogen; A4008) was applied in a 1:1000 dilution in FACS blocking buffer. Flow cytometry measurement was conducted on the Guava easyCyte 5HT device from Merck-Millipore at excitation wavelength 488 nm and emission wavelength 525/30 nm. The * in table 2 refers to a fusion protein with the albumin binding domain as dimer (homo-dimer) and/or the targeting moiety as dimer.
On to B11, for which the Kd stood at 2.05 nM.
B12 yielded a Kd of 1.72 nM.
The same measure, in the same setting: next, B13: 3.81 nM.
For B14, binding was characterised by a dissociation constant (Kd) of 2.17 nM.
Consider B15, for which the affinity, expressed as Kd, was 2.69 nM.

In a further test the target is T2, Her2-Fc. The test is described as follows: ELISA on coated Her2-Fc; 24 h in mouse serum at 37 C. The procedure: as §3, §4
B11 gave a dissociation constant Kd of 0.63 nM.
With B12, the Kd was determined as 0.24 nM.
The molecule B13 returned a Kd of 0.2 nM.
The molecule B14 returned a Kd of 0.6 nM.
B15: the affinity, expressed as Kd, was 0.23 nM. This Kd lies about 2.6-fold lower than the previous one.

In another test the target is T2, Her2-Fc. The test is described as follows: ELISA on coated Her2-Fc; 24 h in human serum at 37 C. The procedure: as §3, §4
Take B11: the Kd stood at 0.79 nM.
Molecule B12 had a Kd of 0.36 nM. Compared with the last molecule, the Kd is about 2.2-fold lower.
Molecule B13 returned a Kd of 0.36 nM.
Take B14: the Kd stood at 0.53 nM. This Kd and that of the molecule before are within 1.5-fold of each other.
Molecule B15 gave a Kd of 0.32 nM.

The next test has as its target T2, Her2-Fc. The test is described as follows: ELISA on coated Her2-Fc; after 24 h in mouse serum at 37 C. The procedure:
as §3, §4
With B11, the “max binding after 24 h [%]” value was determined as 97.7%.
On the same count and under the same terms, next, B12: 98.6%.
Same read-out and setting: under B13 stands 104%; under B14, 100%.
Still for that read-out and setting: next, B15: 96.6%.

Another test deals with T2, Her2-Fc. The test is described as follows: ELISA on coated Her2-Fc; after 24 h in human serum at 37 C. The procedure: as §3, §4
As for B11, the “max binding after 24 h [%]” value came to 94.1%.
B12: the “max binding after 24 h [%]” value came to 100%.
Same read-out and setting: under B13 stands 99%.
On to B14, for which the “max binding after 24 h [%]” value is 96.2%.
Same read-out and setting: under B15 stands 95.1%.

The next test addresses T2, Her2-Fc. The test is described as follows: ELISA on coated Her2-Fc; KD 24 h against KD 0 h, mouse serum. The procedure:
as §3, §4
In the case of B11, the “increase of KD vs target [fold]” value was determined as 1.72 fold.
B12: the “increase of KD vs target [fold]” value was determined as 1.2 fold.
On the same count and under the same terms, next, B13: 1.2 fold; B14: 1.43 fold.
The same measure, in the same setting: next, B15: 1.14 fold.

The next test deals with T2, Her2-Fc. The test is described as follows: ELISA on coated Her2-Fc; KD 24 h against KD 0 h, human serum. The procedure:
as §3, §4
In the case of B11, the “increase of KD vs target [fold]” value was determined as 1.29 fold.
Same read-out and setting: next, B12: 1.58 fold; B13: 1.05 fold; B14: 0.63 fold.
On the same count and under the same terms, next, B15: 0.93 fold.

The target of the next test is T4, human serum albumin (human, UniProt P02768 25-609).
T4 construct: also called HSA
T4 sequence (P02768 25-609 limits assumed): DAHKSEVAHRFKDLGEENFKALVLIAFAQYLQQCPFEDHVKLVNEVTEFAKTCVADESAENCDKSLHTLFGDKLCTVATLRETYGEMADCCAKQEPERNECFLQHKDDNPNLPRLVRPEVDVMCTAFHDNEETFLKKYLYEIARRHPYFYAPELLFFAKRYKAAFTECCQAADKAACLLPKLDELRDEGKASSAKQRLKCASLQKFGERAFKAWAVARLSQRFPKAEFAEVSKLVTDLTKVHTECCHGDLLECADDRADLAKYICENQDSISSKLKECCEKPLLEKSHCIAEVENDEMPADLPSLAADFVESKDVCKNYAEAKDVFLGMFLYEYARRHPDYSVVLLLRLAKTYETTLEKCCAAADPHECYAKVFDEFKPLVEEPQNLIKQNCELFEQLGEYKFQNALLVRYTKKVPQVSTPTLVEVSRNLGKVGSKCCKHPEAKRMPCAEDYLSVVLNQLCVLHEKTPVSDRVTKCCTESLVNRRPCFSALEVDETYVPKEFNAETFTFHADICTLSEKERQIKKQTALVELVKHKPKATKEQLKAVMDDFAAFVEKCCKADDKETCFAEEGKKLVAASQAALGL
The test is described as follows: SPR, HSA immobilised on the chip, pH 7.3, 1:1 Langmuir fit [continued]. The procedure: as §1, §2
The molecule B11 came in with a Kd of 2.9 nM.
Regarding B12, binding was characterised by a dissociation constant (Kd) of 1.8 nM.
The same measure, in the same setting: under B14 stands 0.6 nM; under B15, 6.3 nM.

A further test deals with T5, Her2 (immobilised on the SPR chip) (human, UniProt P04626 23-652, limits assumed).
T5 construct: construct not described; also called human epidermal growth factor receptor 2
The test is described as follows: SPR, Her2 immobilised on the chip, pH 7.3, 1:1 Langmuir fit [continued]. The procedure: as §1, §2
Turning to B11, the Kd was 4.1 nM.
The same measure, in the same setting: next, B12: 2.7 nM.
Same read-out and setting: next, B14: 7.3 nM.
In the case of B15, binding was put at a Kd of 4.4 nM.
